Measurements as given in patent US20130216476A1 (LFB BIOTECHNOLOGIES, priority 2010, published 2013).

Key:
ARH-77 tumour cells = experiment: Survival of SCID mice bearing ARH-77 tumour cells, anti-CD71 antibody with or without Velcade, section 3.2 (FIG. 3); format: in vivo
Experimental: The injection was carried out between 24 to 72 hours after whole-body exposure of the mice to gamma radiation (1.8 Gy, ^60Co, INRA, Dijon, France).
The day of injection of tumour cells is considered as day 0 (D0). […] The treatment with Velcade® commences on day 4 and therefore takes place on days D4, D7, D11, D14, D18, D25, D28 and D32.
The 40 mice are separated into 5 groups.
The injection volume of Velcade® (10 ml/kg) is adjusted to the […] of the individual animals.
The mice surviving the experiment were sacrificed after 144 days following the injection of tumour cells. An autopsy was carried out on all the mice found dead or sacrificed during the experiment due to the presence of one of the pathological signs specified in the above section.
Table 5 below compares the average survival of the mice in the 5 groups which died or were sacrificed before the end of the experiment due to the presence of the pathological signs specified above.

[1] = target: CD71 antigen (transferrin receptor) on the surface of ARH-77 myeloma cells (UniProt P02786); experiment: QIFIKIT indirect immunofluorescence, flow cytometry on ARH-77 cells, control antibody at 5 µg/ml, anti-mouse IgG-FITC
Sequence of UniProt P02786 (P02786 whole entry): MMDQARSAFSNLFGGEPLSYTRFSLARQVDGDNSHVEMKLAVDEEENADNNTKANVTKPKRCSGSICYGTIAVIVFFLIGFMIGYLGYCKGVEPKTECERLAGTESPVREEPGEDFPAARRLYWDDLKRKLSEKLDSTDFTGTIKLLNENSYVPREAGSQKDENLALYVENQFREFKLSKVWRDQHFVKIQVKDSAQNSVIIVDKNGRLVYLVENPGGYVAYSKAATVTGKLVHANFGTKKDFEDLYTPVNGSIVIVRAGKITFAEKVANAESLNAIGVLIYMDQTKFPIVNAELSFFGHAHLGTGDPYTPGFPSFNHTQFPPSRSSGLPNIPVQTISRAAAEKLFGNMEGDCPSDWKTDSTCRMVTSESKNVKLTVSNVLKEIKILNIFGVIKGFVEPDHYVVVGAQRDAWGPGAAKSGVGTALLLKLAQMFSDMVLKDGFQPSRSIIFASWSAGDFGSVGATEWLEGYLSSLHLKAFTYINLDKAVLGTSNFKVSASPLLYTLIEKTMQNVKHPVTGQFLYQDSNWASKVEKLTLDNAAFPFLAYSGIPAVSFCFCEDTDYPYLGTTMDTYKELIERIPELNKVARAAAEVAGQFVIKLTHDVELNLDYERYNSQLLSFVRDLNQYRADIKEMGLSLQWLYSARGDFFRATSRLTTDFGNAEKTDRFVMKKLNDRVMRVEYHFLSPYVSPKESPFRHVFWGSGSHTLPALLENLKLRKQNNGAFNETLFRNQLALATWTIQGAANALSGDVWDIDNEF

[2] = target: CD71 antigen (transferrin receptor) on the surface of ARH-77 myeloma cells (UniProt P02786); experiment: QIFIKIT indirect immunofluorescence, flow cytometry on ARH-77 cells, control antibody at 5 µg/ml; BAE is background non-specific binding capacity
[3] = target: CD71 antigen (transferrin receptor) on the surface of ARH-77 myeloma cells (UniProt P02786); experiment: flow cytometry on ARH-77 cells, control antibody at 10 µg/ml, anti-mouse IgG-PE

Which “The number of mice that died before the end of the experiment” value (ARH-77 tumour cells; 8 mice per group, end at day 144, doses as in Table 4) does the source give for CC(C)C[C@H](NC(=O)[C@H](Cc1ccccc1)NC(=O)c1cnccn1)B(O)O [Velcade®, bortezomib] here?
Its value is 8.

What about the “day of death or of sacrifice due to pathological signs after injection of ARH-77 cells” value (ARH-77 tumour cells; 8 mice per group, antibodies 1.2 mg/mouse/inj twice weekly for 6 weeks, Velcade 0.5 mg/kg/inj twice weekly for 4 weeks) of the same compound?
Its value is 27 day.

What about the The survival median (ARH-77 tumour cells; doses as in Table 4) of the same compound?
The The survival median was 29.5.

What about the The survival average (ARH-77 tumour cells; only mice that died or were sacrificed before the end of the experiment, doses as in Table 4) of the same compound?
Its The survival average is 28.4 days.

For “irrelevant antibody (anti-mouse IgG1) used as negative control”, which MFI [1] is on record?
Its MFI is 5.2.

And the BAE [2]?
Its BAE is 2290.

How did the CD71+ % [3] turn out when negative control antibody IgG1 (MAT002) was run?
Its CD71+ % is 3.7%.

And the CD71- % [3]?
The CD71- % was 96.3%.

What about the MFI [3] of the same compound?
The MFI was 4.9.
